Data on 9 molecules can be found in patent US20190263918A1 (SHANGHAI JIAO TONG UNIVERSITY SCHOOL OF MEDICINE, published 2019).

T1: murine DR5 on MC38 cells (murine, UniProt Q9QZM4 53-381)
T1 construct: whole, on cells; also called mDR5
T1 sequence (looked up): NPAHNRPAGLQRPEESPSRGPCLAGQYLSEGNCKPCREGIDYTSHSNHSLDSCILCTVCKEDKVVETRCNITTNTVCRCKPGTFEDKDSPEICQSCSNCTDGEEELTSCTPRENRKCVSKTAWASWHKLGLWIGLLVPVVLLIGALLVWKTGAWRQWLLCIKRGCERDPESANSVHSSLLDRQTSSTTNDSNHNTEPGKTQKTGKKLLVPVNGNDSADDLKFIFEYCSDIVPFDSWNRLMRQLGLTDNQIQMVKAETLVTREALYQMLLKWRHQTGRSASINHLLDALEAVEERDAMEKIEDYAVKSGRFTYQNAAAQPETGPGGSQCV

T2: human FcγRIIA-R131 extracellular domain protein (human, UniProt P12318 34-217)
T2 construct: extracellular domain; SPR: His-tagged, immobilised; ELISA: biotinylated; also called hFcγRIIA-R131; CD32a
T2 sequence (looked up): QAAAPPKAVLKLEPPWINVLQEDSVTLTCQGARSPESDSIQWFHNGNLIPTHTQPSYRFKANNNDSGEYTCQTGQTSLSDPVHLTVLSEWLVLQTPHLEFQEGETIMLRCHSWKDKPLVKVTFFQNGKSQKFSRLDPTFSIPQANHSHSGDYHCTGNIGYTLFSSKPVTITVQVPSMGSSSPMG

T3: recombinant murine CD40 protein (murine, UniProt P27512 24-193, limits assumed)
T3 construct: Bought; coated on the ELISA plate; also called mouse CD40; mCD40
T3 sequence (looked up): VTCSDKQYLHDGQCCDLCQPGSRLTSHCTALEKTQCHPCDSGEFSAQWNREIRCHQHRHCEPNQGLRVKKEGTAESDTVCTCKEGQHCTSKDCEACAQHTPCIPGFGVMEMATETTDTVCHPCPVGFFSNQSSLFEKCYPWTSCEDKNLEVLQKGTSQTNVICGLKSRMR

B1: Anti-mDR5-hIgG2 (antibody)
heavy: QIQLQESGPGLVKPAQSLSLTCSITGFPITAGGYWWTWIRQFPGQKLEWMGYIYSSGSTNYNPSIKSRISITRDTAKNQFFLQLNSVTTEEDTAIYYCARAGTSYSGFFDSWGQGTLVTVSSASTKGPSVFPLAPCSRSTSESTAALGCLVKDYFPEPVTVSWNSGALTSGVHTFPAVLQSSGLYSLSSVVTVPSSNFGTQTYTCNVDHKPSNTKVDKTVERKCCVECPPCPAPPVAGPSVFLFPPKPKDTLMISRTPEVTCVVVDVSHEDPEVQFNWYVDGVEVHNAKTKPREEQFNSTFRVVSVLTVVHQDWLNGKEYKCKVSNKGLPAPIEKTISKTKGQPREPQVYTLPPSREEMTKNQVSLTCLVKGFYPSDIAVEWESNGQPENNYKTTPPMLDSDGSFFLYSKLTVDKSRWQQGNVFSCSVMHEALHNHYTQKSLSLSPGK
light: DIQVTQSPSLLSASFGDKVTINCLVTQDITYYLSWYQQKSGQPPTLLIYNGNSLQSGVPSRFSGQYSGRTFTLSLSSLEPEDAGTYYCLQHYSVPFTFGGGTRLEIKRTVAAPSVFIFPPSDEQLKSGTASVVCLLNNFYPREAKVQWKVDNALQSGNSQESVTEQDSKDSTYSLSSTLTLSKADYEKHKVYACEVTHQGLSSPVTKSFNRGEC
notes: Chimeric anti-murine DR5 antibody, heavy chain constant region G2; also called Anti-mDR5-IgG2
B2: Anti-mDR5-hIgG1(V11) (antibody)
heavy: QIQLQESGPGLVKPAQSLSLTCSITGFPITAGGYWWTWIRQFPGQKLEWMGYIYSSGSTNYNPSIKSRISITRDTAKNQFFLQLNSVTTEEDTAIYYCARAGTSYSGFFDSWGQGTLVTVSSATTKGPSVFPLAPSSKSTSGGTAALGCLVKDYFPEPVTVSWNSGALTSGVHTFPAVLQSSGLYSLSSVVTVPSSSLGTQTYICNVNHKPSNTKVDKRVEPKSCDKTHTCPPCPAPELLGDDSVFLFPPKPKDTLMISRTPEVTCVVVDVSDEDGEVKFNWYVDGVEVHNAKTKPREEQYNSTYRVVSVLTVLHQDWLNGKEYKCKVSNKALPRPIEKTISKAKGQPREPQVYTLPPSRDELTKNQVSLTCLVKGFYPSDIAVEWESNGQPENNYKTTPPVLDSDGSFFLYSKLTVDKSRWQQGNVFSCSVMHEALHNHYTQKSLSLSPGK
light: DIQVTQSPSLLSASFGDKVTINCLVTQDITYYLSWYQQKSGQPPTLLIYNGNSLQSGVPSRFSGQYSGRTFTLSLSSLEPEDAGTYYCLQHYSVPFTFGGGTRLEIKRTVAAPSVFIFPPSDEQLKSGTASVVCLLNNFYPREAKVQWKVDNALQSGNSQESVTEQDSKDSTYSLSSTLTLSKADYEKHKVYACEVTHQGLSSPVTKSFNRGEC
notes: Chimeric anti-murine DR5 antibody, heavy chain constant region V11(H1)
B3: Anti-mDR5-IgG2(V11) (antibody)
heavy: QIQLQESGPGLVKPAQSLSLTCSITGFPITAGGYWWTWIRQFPGQKLEWMGYIYSSGSTNYNPSIKSRISITRDTAKNQFFLQLNSVTTEEDTAIYYCARAGTSYSGFFDSWGQGTLVTVSSASTKGPSVFPLAPCSRSTSESTAALGCLVKDYFPEPVTVSWNSGALTSGVHTFPAVLQSSGLYSLSSVVTVPSSNFGTQTYTCNVDHKPSNTKVDKTVERKCCVECPPCPAPELLGDDSVFLFPPKPKDTLMISRTPEVTCVVVDVSDEDGEVKFNWYVDGVEVHNAKTKPREEQYNSTYRVVSVLTVLHQDWLNGKEYKCKVSNKALPRPIEKTISKAKGQPREPQVYTLPPSRDELTKNQVSLTCLVKGFYPSDIAVEWESNGQPENNYKTTPPVLDSDGSFFLYSKLTVDKSRWQQGNVFSCSVMHEALHNHYTQKSLSLSPGK
light: DIQVTQSPSLLSASFGDKVTINCLVTQDITYYLSWYQQKSGQPPTLLIYNGNSLQSGVPSRFSGQYSGRTFTLSLSSLEPEDAGTYYCLQHYSVPFTFGGGTRLEIKRTVAAPSVFIFPPSDEQLKSGTASVVCLLNNFYPREAKVQWKVDNALQSGNSQESVTEQDSKDSTYSLSSTLTLSKADYEKHKVYACEVTHQGLSSPVTKSFNRGEC
notes: Chimeric anti-murine DR5 antibody, heavy chain constant region V11(H2), i.e. JAC1
B4: Anti-mDR5-hIgG1-GASDALIE (antibody)
heavy: QIQLQESGPGLVKPAQSLSLTCSITGFPITAGGYWWTWIRQFPGQKLEWMGYIYSSGSTNYNPSIKSRISITRDTAKNQFFLQLNSVTTEEDTAIYYCARAGTSYSGFFDSWGQGTLVTVSSATTKGPSVFPLAPSSKSTSGGTAALGCLVKDYFPEPVTVSWNSGALTSGVHTFPAVLQSSGLYSLSSVVTVPSSSLGTQTYICNVNHKPSNTKVDKRVEPKSCDKTHTCPPCPAPELLAGPDVFLFPPKPKDTLMISRTPEVTCVVVDVSHEDPEVKFNWYVDGVEVHNAKTKPREEQYNSTYRVVSVLTVLHQDWLNGKEYKCKVSNKALPLPEEKTISKAKGQPREPQVYTLPPSRDELTKNQVSLTCLVKGFYPSDIAVEWESNGQPENNYKTTPPVLDSDGSFFLYSKLTVDKSRWQQGNVFSCSVMHEALHNHYTQKSLSLSPGK
light: DIQVTQSPSLLSASFGDKVTINCLVTQDITYYLSWYQQKSGQPPTLLIYNGNSLQSGVPSRFSGQYSGRTFTLSLSSLEPEDAGTYYCLQHYSVPFTFGGGTRLEIKRTVAAPSVFIFPPSDEQLKSGTASVVCLLNNFYPREAKVQWKVDNALQSGNSQESVTEQDSKDSTYSLSSTLTLSKADYEKHKVYACEVTHQGLSSPVTKSFNRGEC
B5: Anti-hCD40-hIgG1(V11) (antibody)
heavy: not shown
light: DIQMTQSPSSVSASVGDRVTITCRASQGIYSWLAWYQQKPGKAPNLLIYTASTLQSGVPSRFSGSGSGTDFTLTISSLQPEDFATYYCQQANIFPLTFGGGTKVEIKRTVAAPSVFIFPPSDEQLKSGTASVVCLLNNFYPREAKVQWKVDNALQSGNSQESVTEQDSKDSTYSLSSTLTLSKADYEKHKVYACEVTHQGLSSPVTKSFNRGEC
notes: Human anti-human CD40 antibody, heavy chain constant region V11(H1)
B6: Anti-hCD40-hIgG2-SELF (antibody)
heavy: not shown
light: DIQMTQSPSSVSASVGDRVTITCRASQGIYSWLAWYQQKPGKAPNLLIYTASTLQSGVPSRFSGSGSGTDFTLTISSLQPEDFATYYCQQANIFPLTFGGGTKVEIKRTVAAPSVFIFPPSDEQLKSGTASVVCLLNNFYPREAKVQWKVDNALQSGNSQESVTEQDSKDSTYSLSSTLTLSKADYEKHKVYACEVTHQGLSSPVTKSFNRGEC
notes: Human anti-human CD40 antibody, heavy chain constant region G2-SELF, i.e. JAC3; also called anti-human CD40 antibody comprising JAC3
B7: Anti-hCD40-hIgG2-SE (antibody)
heavy: not shown
light: DIQMTQSPSSVSASVGDRVTITCRASQGIYSWLAWYQQKPGKAPNLLIYTASTLQSGVPSRFSGSGSGTDFTLTISSLQPEDFATYYCQQANIFPLTFGGGTKVEIKRTVAAPSVFIFPPSDEQLKSGTASVVCLLNNFYPREAKVQWKVDNALQSGNSQESVTEQDSKDSTYSLSSTLTLSKADYEKHKVYACEVTHQGLSSPVTKSFNRGEC
notes: Human anti-human CD40 antibody, heavy chain constant region G2-SE
B8: Anti-hCD40-hIgG2-HDPG (antibody)
heavy: not shown
light: DIQMTQSPSSVSASVGDRVTITCRASQGIYSWLAWYQQKPGKAPNLLIYTASTLQSGVPSRFSGSGSGTDFTLTISSLQPEDFATYYCQQANIFPLTFGGGTKVEIKRTVAAPSVFIFPPSDEQLKSGTASVVCLLNNFYPREAKVQWKVDNALQSGNSQESVTEQDSKDSTYSLSSTLTLSKADYEKHKVYACEVTHQGLSSPVTKSFNRGEC
notes: Human anti-human CD40 antibody, heavy chain constant region G2-HDPG, i.e. JAC4; also called anti-human CD40 antibody comprising JAC4
B9: Anti-mCD40-hIgG1 (antibody)
heavy: not shown
light: DTVLTQSPALAVSPGERVTISCRASDSVSTLMHWYQQKPGQQPKLLIYLASHLESGVPARFSGSGSGTDFTLTIDPVEADDTATYYCQQSWNDPWTFGGGTKLELKRTVAAPSVFIFPPSDEQLKSGTASVVCLLNNFYPREAKVQWKVDNALQSGNSQESVTEQDSKDSTYSLSSTLTLSKADYEKHKVYACEVTHQGLSSPVTKSFNRGEC
notes: Chimeric anti-murine CD40 antibody, heavy chain constant region G1

In the first assay the target is T1, murine DR5 on MC38 cells. Kind of assay: flow cytometry on MC38 cells, FITC goat anti-human antibody. The procedure:
To detect the DR5 binding capacity of different anti-DR5 antibodies, MC38 cells were resuspended in ice-cold FACS buffer (PBS+0.5% FBS+2 mM EDTA+0.1% NaN3), to which 3.16-fold gradient dilutions of control and anti-DR5 antibody at concentrations ranging from 2 ng to 20 µg/mL were added, and the reaction was incubated at room temperature for 15 minutes. The system was washed twice with ice-cold FACS buffer, then flow-cytometry stained using FITC-labeled goat anti-human antibody (VECTOR FI-3080) on ice for 25 minutes in dark, which was then washed twice with FACS buffer and analyzed by flow-cytometry. For the antibodies, the DR5 binding capacity was positively correlated to FITC mean fluorescence intensity (MFI).
With B1, the binding result was “binds”.

Consider B2, for which the binding result is “binds”.

On to B3, for which the binding result is listed as “binds”.

For the molecule B4, the binding result is “binds”.

Another assay addresses T2, human FcγRIIA-R131 extracellular domain …. Kind of assay: ELISA: plate coated with the anti-human CD40 antibody, biotinylated human FcγRIIA-R131 extracellular domain, streptavidin-HRP, A650 [lower FcγRIIA-R131 panel]. On the procedure: The ELISA plate was coated with 100 μL antibody at an appropriate concentration overnight, supernatant being discarded. The plate was blocked with 1% BSA in PBS for 2 hours, followed by washing with PBST (PBS with 0.05% Tween 20). Then, biotinylated FcγR extracellular domain protein (Sino Biologic Inc., Beijing China) at a concentration as appropriate was added and incubated at room temperature for 1 hour, supernatant being discarded, followed by PBST wash. Streptavidin-HRP (BD Biosciences) was added and incubated at room temperature for 1 hour for detection of biotin protein. After removal of supernatant, developing solution was added to react for 20-40 minutes, and absorbance was determined at 650 nm (A650).
(In general: An ELISA detects its analyte on a solid surface through an enzyme-linked reagent.)
For B5, the binding result is on record as “binds”.

As to B6, the binding result was “binds”.

As for B7, the binding result was “binds”.

In the case of B8, the binding result is “binds”.

The target of another assay is T3, recombinant murine CD40 protein. Kind of assay: ELISA: plate coated with recombinant murine CD40, antibody in gradient dilutions, HRP-labelled goat anti-human IgG-Fc secondary antibody, A650. The procedure: For assay on anti-human CD40 antibodies, an ELISA plate was coated with recombinant human CD40 protein (Novoprotein Scientific Inc.) overnight at atmospheric temperature, blocked using 1% BSA at room temperature for 2 h, and then washed three times with PBST (0.05% Tween 20 in PBS). To each well was added […] gradient dilutions of the human agonistic CD40 antibody. The plate was incubated at room temperature for 1 h and washed four times with PBST. Then, 100 ng/ml biotinylated secondary antibody against human Igκ light chain was added, incubated at room temperature for 1 h and washed 4 times with PBST. SAV-HRP at an appropriate concentration was added, incubated at room temperature for 1 h. Then, chromogenic substrate was added to react for 5 minutes, and optical absorbance was determined at 650 nm.
For assay on anti-murine CD40 antibodies, the process was the same, expect that the plate was coated with recombinant murine CD40 protein (Novoprotein Scientific Inc.) and HRP-labeled goat anti-human IgG-Fc antibody was used as the secondary antibody.
In general, EC50 (read off the curve) refers to the concentration at which the effect is half-maximal. B9: the concentration for a half-maximal effect (EC50 (read off the curve)) was approximately 0.1 µg/mL.
